# Data taken from patent US6942981.
# Ends that are not written are not given here. * marks the point of attachment. Biotin = O=C1N[C@H]2[C@H](CS[C@H]2CCCCC(=O)*)N1
# T1: GST-LIMK2 PDZ domain fusion protein (human, UniProt P53671 147-237)
# T1 construct: also called human LIM domain kinase 2; not shown: glutathione S-transferase (GST) encoded by pGEX-3X
# T1 sequence: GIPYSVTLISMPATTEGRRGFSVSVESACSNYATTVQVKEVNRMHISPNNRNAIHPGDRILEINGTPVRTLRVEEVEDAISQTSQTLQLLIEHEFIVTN
# T2: GST-MINT3 PDZ domain fusion protein (human)
# T2 construct: also called human MINT3; not shown: glutathione S-transferase (GST) encoded by pGEX-3X
# T2 chain: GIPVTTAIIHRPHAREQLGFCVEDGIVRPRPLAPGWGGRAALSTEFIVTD
# T3: GST-SYN1a (alpha1-syntrophin) PDZ domain fusion protein (Homo sapiens (Human), UniProt Q13424 84-179)
# T3 construct: also called SYN 1 α; not shown: glutathione S-transferase (GST) encoded by pGEX-3X
# T3 sequence: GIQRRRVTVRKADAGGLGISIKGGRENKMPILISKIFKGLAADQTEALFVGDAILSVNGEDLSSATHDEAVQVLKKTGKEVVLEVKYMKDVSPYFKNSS
# T4: GST-DVL1 PDZ domain fusion protein (human)
# T4 construct: also called human dishevelled segment polarity protein homolog; not shown: glutathione S-transferase (GST) encoded by pGEX-3X
# T4 chain: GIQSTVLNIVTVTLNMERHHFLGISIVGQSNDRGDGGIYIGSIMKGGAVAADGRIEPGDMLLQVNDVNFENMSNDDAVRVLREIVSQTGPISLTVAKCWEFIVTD
# T5: GST-NeDLG PDZ domains 1-2 fusion protein (Mus musculus (Mouse), UniProt P70175 147-332)
# T5 construct: also called NeDLG1; not shown: glutathione S-transferase (GST) encoded by pGEX-3X
# T5 chain: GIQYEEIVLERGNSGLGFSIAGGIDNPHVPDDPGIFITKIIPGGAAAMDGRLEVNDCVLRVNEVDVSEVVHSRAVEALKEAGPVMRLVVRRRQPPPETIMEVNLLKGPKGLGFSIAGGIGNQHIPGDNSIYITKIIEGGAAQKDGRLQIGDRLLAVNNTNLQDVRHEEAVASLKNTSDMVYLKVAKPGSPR
# T6: GST-TAX2 PDZ domain fusion protein (human, UniProt O14908 129-216)
# T6 construct: not shown: glutathione S-transferase (GST) encoded by pGEX-3X
# T6 chain: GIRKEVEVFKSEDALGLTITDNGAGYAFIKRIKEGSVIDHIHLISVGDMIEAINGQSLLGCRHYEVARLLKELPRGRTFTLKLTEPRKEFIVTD
# T7: GST-MPP2 PDZ domain fusion protein
# T7 construct: also called maguk p55 subfamily member 2 (DLG2); MMP2; not shown: glutathione S-transferase (GST) encoded by pGEX-3X
# T7 chain: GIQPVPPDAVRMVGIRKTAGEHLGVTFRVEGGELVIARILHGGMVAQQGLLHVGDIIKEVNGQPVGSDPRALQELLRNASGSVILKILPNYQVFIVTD
# T8: GST-CASK PDZ domain fusion protein (mouse, UniProt O14936 485-575 (human entry))
# T8 sequence: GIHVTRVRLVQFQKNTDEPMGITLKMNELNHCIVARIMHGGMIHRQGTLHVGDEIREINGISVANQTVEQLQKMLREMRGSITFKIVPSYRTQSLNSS
# T9: GST-MPP1 PDZ domain fusion protein (Homo sapiens (Human), UniProt Q00013 67-152)
# T9 construct: also called 55 Kd erythrocyte membrane protein; not shown: glutathione S-transferase (GST) encoded by pGEX-3X
# T9 sequence: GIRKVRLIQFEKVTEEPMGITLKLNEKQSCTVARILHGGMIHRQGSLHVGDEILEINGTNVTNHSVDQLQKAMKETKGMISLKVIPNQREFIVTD
# Key:
# [1] = target: T1, GST-LIMK2 PDZ domain fusion protein; assay: A/G assays
# [2] = target: T2, GST-MINT3 PDZ domain fusion protein; assay: A/G assays
# [3] = target: T3, GST-SYN1a (alpha1-syntrophin) PDZ …; assay: A/G assays
# [4] = target: T4, GST-DVL1 PDZ domain fusion protein; assay: A/G assays
# [5] = target: T5, GST-NeDLG PDZ domains 1-2 fusion protein; assay: A/G assays
# [6] = target: T6, GST-TAX2 PDZ domain fusion protein; assay: A/G assays
# [7] = target: T7, GST-MPP2 PDZ domain fusion protein; assay: A/G assays
# [8] = target: T8, GST-CASK PDZ domain fusion protein; assay: A/G assays
# [9] = target: T7, GST-MPP2 PDZ domain fusion protein; assay: A assay
# [10] = target: T9, GST-MPP1 PDZ domain fusion protein; assay: A/G assays
# [11] = target: T5, GST-NeDLG PDZ domains 1-2 fusion protein; assay: G assay
Binder,binding result [1],binding result [2],binding result [3],binding result [4],binding result [5],binding result [6],binding result [7],binding result [8],binding result [9],binding result [10],binding result [11]
Biotin-PKQANGGAYQKPTKQEEFYA [CD138 (syndecan) C-terminal peptide AA18L],no binding,no binding,no binding,no binding,no binding,no binding,no binding,no binding,,,
Biotin-QGDPALQDAGDSSRKEYFI (also called GC) [Glycophorin C C-terminal peptide AA37L],no binding,no binding,no binding,no binding,,no binding,,,binds,no binding,binds
